# Measurements reported in the supplement of paper PMC9112550, “Optimization of the antimicrobial peptide Bac7 by deep mutational scanning” (BMC Biology, 2022).
# System: Escherichia coli TOP10
# Test: shrunken log2 fold change of peptide-encoding DNA abundance (4.5 h post-induction vs induction); higher = less antimicrobial activity (less host growth inhibition)
# Conditions: time post-induction: 4.5 h; library: site-saturation at positions 5, 18, 19, 20
# 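Further: peptides expressed intracellularly from a pBAD plasmid library in pooled LB shake-flask culture, induced with 0.3% L-arabinose, DNA abundance read by NGS, three biological replicates, DESeq2 with apeglm shrinkage.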
row,Sequence,shrunken log2 fold change
1,RRIRVRPPRLPRPRPRPNITPRP,-0.808
2,RRIRDRPPRLPRPRPRPAKNPRP,-0.119
3,RRIRGRPPRLPRPRPRPKARPRP,0.208
4,RRIRRRPPRLPRPRPRPHPQPRP,0.268
5,RRIRNRPPRLPRPRPRPEGFPRP,0.0136
6,RRIRNRPPRLPRPRPRPIWSPRP,0.0615
7,RRIRNRPPRLPRPRPRPSWDPRP,0.039
8,RRIRKRPPRLPRPRPRPYLEPRP,0.0252
9,RRIRGRPPRLPRPRPRPSVMPRP,0.107
10,RRIRCRPPRLPRPRPRPKMIPRP,-0.727
11,RRIRERPPRLPRPRPRPEMTPRP,-0.0236
12,RRIRTRPPRLPRPRPRPIWHPRP,0.12
13,RRIRDRPPRLPRPRPRPLNQPRP,-0.009
14,RRIRVRPPRLPRPRPRPLVQPRP,-0.137
15,RRIRLRPPRLPRPRPRPLLGPRP,0.0797
16,RRIRPRPPRLPRPRPRPHPLPRP,0.0451
17,RRIRTRPPRLPRPRPRPKNSPRP,-0.438
18,RRIRQRPPRLPRPRPRPAEVPRP,0.142
19,RRIRHRPPRLPRPRPRPEVMPRP,-0.0878
20,RRIRTRPPRLPRPRPRPEICPRP,-0.0438

row,Sequence,shrunken log2 fold change
1,RRIRARPPRLPRPRPRPELSPRP,0.0862
2,RRIRERPPRLPRPRPRPKCDPRP,0.175
3,RRIRQRPPRLPRPRPRPESLPRP,-0.00178
4,RRIRTRPPRLPRPRPRPFAAPRP,0.08
5,RRIRARPPRLPRPRPRPNRGPRP,0.108
6,RRIRARPPRLPRPRPRPFCAPRP,0.394
7,RRIRIRPPRLPRPRPRPIYEPRP,-0.107
8,RRIRCRPPRLPRPRPRPVRGPRP,0.59
9,RRIRYRPPRLPRPRPRPEMQPRP,0.057
10,RRIRTRPPRLPRPRPRPYKQPRP,-0.0217
11,RRIRFRPPRLPRPRPRPSGMPRP,-0.637
12,RRIRTRPPRLPRPRPRPNTGPRP,-0.388
13,RRIRRRPPRLPRPRPRPAQCPRP,0.152
14,RRIRNRPPRLPRPRPRPKCVPRP,-0.0346
15,RRIRPRPPRLPRPRPRPHAIPRP,-0.217
16,RRIRYRPPRLPRPRPRPFWEPRP,0.13
17,RRIRLRPPRLPRPRPRPFCLPRP,-0.485
18,RRIRLRPPRLPRPRPRPSVPPRP,-0.185
19,RRIRFRPPRLPRPRPRPHVQPRP,-0.0901
20,RRIRERPPRLPRPRPRPPTYPRP,-0.168

row,Sequence,shrunken log2 fold change
1,RRIRVRPPRLPRPRPRPLSAPRP,-0.0281
2,RRIRARPPRLPRPRPRPVFSPRP,-0.0817
3,RRIRIRPPRLPRPRPRPRGEPRP,0.0673
4,RRIRVRPPRLPRPRPRPFRIPRP,-0.26
5,RRIRCRPPRLPRPRPRPHHNPRP,-0.901
6,RRIRNRPPRLPRPRPRPGCMPRP,0.0522
7,RRIRDRPPRLPRPRPRPNLPPRP,-0.0303
8,RRIRWRPPRLPRPRPRPRCEPRP,0.545
9,RRIRFRPPRLPRPRPRPVYQPRP,-0.0402
10,RRIRPRPPRLPRPRPRPDFYPRP,-0.156
11,RRIRTRPPRLPRPRPRPKCQPRP,-0.144
12,RRIRCRPPRLPRPRPRPKPDPRP,0.296
13,RRIRPRPPRLPRPRPRPPWHPRP,0.196
14,RRIRFRPPRLPRPRPRPKSLPRP,0.0638
15,RRIRNRPPRLPRPRPRPQNVPRP,-0.0764
16,RRIRSRPPRLPRPRPRPFNIPRP,-0.109
17,RRIRDRPPRLPRPRPRPTNKPRP,-0.0409
18,RRIRPRPPRLPRPRPRPHKTPRP,-0.0296
19,RRIRLRPPRLPRPRPRPKCFPRP,-0.00607
20,RRIRYRPPRLPRPRPRPAFIPRP,-0.24
